Reference: PMC7461809

Target: EcoWI endonuclease
Assay: SEC; analytical Superdex 200 10/300 GL, 4°C, 0.38 ml/min, 100 mM NaCl, 20 mM Tris-HCl pH 8, 1 mM DTT, 0.1 mM EDTA, 5% glycerol; purified EcoWI at 2.7 mg/ml; relative molecular weight from Kav against standard proteins

stoichiometry N: 2
Substance: EcoWI endonuclease (enzyme)
